In PMC6686729, “RGD conjugated cell uptake off to on responsive NIR-AZA fluorophores: applications toward intraoperative fluorescence guided surgery” (Chemical Science, 2019):

Legend:
[1] = pH titration of fluorescence intensity, sigmoidal plot fit (pKa); assay type: physicochemical
Excerpt: In order to display the responsive nature and full emissive potential of 2 and 3, their DMEM solutions were sequentially acidified (Fig. 4a and b). This caused a successive increase in emission intensity as acidity increased, with a maximum intensity reached at approximately pH 4. […] While it is recognized that the extracellular matrix of a solid tumour can be more acidic than normal tissue, intracellular organelles such as late endosomes and lysosomes are also acidic ranging between pH 4.5 and 5.5.[27] Encouragingly, the measured fluorescence enhancement factor (FEF) for 2 and 3 between pH 7.2 and that of 4.5 (as found in lysosomes) was 23 and 18 respectively (Fig. 4c). […]
Fig. 4 Responsive emission characteristics of 2 and 3 (5 μM) in DMEM/10% FBS solutions containing TX100. (a) Fluorescence spectra of 2 at pH ranging from 8.0 (black) to 2.0 (red); inset sigmoidal plot fit of integrated fluorescence intensity versus pH. (b) Fluorescence spectra of 3 at pH ranging from 8.0 (black) to 2.0 (red); inset sigmoidal plot fit of integrated fluorescence intensity versus pH. […]
Fig. S1. Absorption and fluorescence pH titration of 1
Fig. S1 Absorbance (left) and fluorescence (right) spectra of 1 (5 μM) in PBS buffer/TX-100 (4 mM) starting at pH 8 (grey line) to pH 2 (red line). Fluorescence excitation: 630 nm; range: 650- 900 nm; […]
(§1) Fig. S2. Absorption pH titration and fluorescence spectra of 2 […]

[2] = tested on: MDA-MB 231 subcutaneous tumour; experiment: In vivo tumour fluorescence imaging, tumour-to-background ratio (TBR) over 96 h; set-up: species or system Balb/C nu/nu mice; conditions: 2 mg kg–1, n = 4 (n = 2 for 10)
Method: Each fluorophore was subjected to in vivo analysis using a standard dosing set at 2 mg kg^–1 delivered by i.v. tail vein injection. Post injection, images were acquired initially at regular intervals between 10 min and 9 h and thereafter less frequently at 24, 48 and 96 h. The method used for image analysis was consistent across all experiments with TBR values calculated by measuring tumour ROI fluorescence against an average of three equally sized background ROI regions, two of which were close to and one distant from the tumour (Fig. S11 ^†). […] As such, we adopted this value as a point of reference to compare result from different fluorophores and different time points for individual fluorophores. […]
All in vivo experiments were conducted in University College Dublin, Ireland in compliance with relevant laws, and their institutional guidelines for animal protocols and the guidelines issued b y the Ethical Committee of University College Dublin and under license from the Health Products Regulatory Authority (HPRA), Dublin, Ireland which approved the experiments.
All in vivo work was carried out in the biomedical facility, University College Dublin (UCD) . MDA-MB-231, a human breast adenocarcinoma cell line, was obtained from Caliper Life Sciences. Cells were maintained as a mono-layer culture in Minimum Essential Medium containing 10% (v/v) fetal bovine serum and supplemented with 1% (v/v) L–glutamine, 50 U/mL penicillin, […] streptomycin, 1% (v/v) sodium pyruvate and 1% (v/v) non-essential amino acids. All cells were maintained in 5% CO2 (v/v) and 21% O2 (v/v) at 37°C.
Balb/C nu/nu mice (Harlan) were housed in individually ventilated cages in temperature and humidity-controlled rooms with a 12 hours light dark cycle. 2-5 Million MDA-MB 231 cells in 100 μL of a DPBS:Matrigel (50:50) solution were injected subcutaneously behind the fore limb of the 5-week-old mice using a 25-g needle. Tumors reached an average diameter of 6 mm prior to imaging […]
images taken at early time points with less frequent imaging thereafter. Images were taken using the settings of excitation 675 nm (30 nm band pass filter) and emission 720 nm (20 nm band pass filter) narrow band pass filters and were analyzed using Living Image Software v4.7.2 (Caliper LS). The tumor-to-background ratio (TBR) was calculated by using the measured fluorescence signal in the ROIs of tumor target and average background. […]
The fluorescence intensity of the animal was measured and normalized to photons per second per centimeter squared per steradian per micro-Watt per centimeter squared [(p/sec/cm2/sr) /(μW/cm2)].
Mice were injected via tail vein (2 mg/kg) as follows; [n = 4 for 1 (3.7 nmol)], [n = 4 for 2 (13.2 nmol)], [n = 4 for 3 (10.5 nmol)], [n = 2 for 10 (10.1 nmol)], anesthetized, and imaged at various time points post injection. All fluorescence images were acquired with two second exposure (f/stop = 2).
Color scale was adjusted and kept same for each experiment to show good contrast of target tumor region to background over time. The fluorescence intensity was not affected by color scale adjusting. […]
For RGD competitive binding study, mice injected with 2 (13.2 nmol) with or without pre-injection with RDG 5 (89.5 nmol) and were imaged at 10 min interval for 3 hours, and then immediately euthanized by inhalation of carbon dioxide. For quantitative comparison, regions of interests (ROIs) […]

[3] = Photophysical properties (absorption, emission, FEF, quantum yield) in DMEM/10% FBS; assay type: physicochemical
Excerpt: The photophysical properties of the bio-responsive fluorophores 2 and 3 and the always-on control 10 were studied in solutions of Dulbecco's modified eagle's cell medium (DMEM) containing 10% fetal bovine serum (FBS). Absorption and emission wavelengths are listed in Table 1 and are, as would be expected for the NIR-AZA class, in the 690–730 nm range. At pH 7.4 fluorescence intensity of always-on10 was 17- and 15-fold greater than 2 and 3 respectively (Table 1). This illustrates both the emissive potential of the peptide conjugates and the ability to quench the bio-responsive derivatives in relevant biological media (Table 1, spectra and inset). […]
as §1
Fig. S2 Absorbance (left) spectra of 2 (5 μM) in DMEM (10% FBS) /TX100 (4 mM) starting at pH 8 (grey line) to pH 3 (red line). Fluorescence (right) spectra of series dilution (3 µM, 1.8 µM, 1.3 µM, 0.5 µM) in DMEM (10% FBS) /TX100 (4 mM) at pH=3. Fluorescence excitation: 630 nm; range: 650- 900 nm; slit widths: 5/5. Inset: Integrated fluorescence intensity vs. Absorbance; calculated fluorescence quantum yield Φ = 0.16. […]
Fig. S3. Absorption pH titration and fluorescence spectra of 3 […]
Fig. S3 Absorbance (left) spectra of 3 (5 μM) in DMEM (10% FBS) /TX100 (4 mM) starting at pH 8 (grey line) to pH 3 (red line). Fluorescence (right) spectra of series dilution (3.5 µM, 2.6 µM, 1.3 µM, 0.8 µM) in DMEM (10% FBS) /TX100 (4 mM) at pH=3. Fluorescence excitation: 630 nm; range: 650- 900 nm; slit widths: 5/5. Inset: Integrated fluorescence intensity vs. Absorbance; calculated fluorescence quantum yield Φ = 0.18.
Fig. S4. Absorption and fluorescence spectra of 10 at pH 7.4, 6.6, 5.6 and 3.
Fig. S4 Absorbance (left) and fluorescence (right) spectra of 10 (5 μM) in DMEM (10% FBS) /TX100 (4 mM). Fluorescence excitation: 630 nm; range: 650- 900 nm; slit widths: 5/5.

MDA-MB 231 cells = experiment: Live MDA-MB 231 cell NIR-fluorescence/DIC time-lapse imaging; assay type: cell-based, human; conditions: live MDA-MB 231 cells, 1–5 μM, 37 °C
Method: With the responsive nature of 2 and 3 established, the potential for translation of these constructs to real-time live cell imaging was investigated. In order to illustrate the imaging effect of the bio-responsive characteristics of 2 and 3 the always-on10 was also imaged as a positive control. For live MDA-MB 231 cell experiments, chamber slide seeded cells were placed in a widefield microscope surrounded by an incubator to maintain the temperature at 37 °C and CO2 at 5%, following which an imaging field of view containing viable cells was chosen. The cells were treated with either 2, 3 or 10 (1–5 μM) and time-lapse NIR-fluorescence and differential interference contrast (DIC) images were acquired over 120 min. […] As expected, the […] morphology of the cell line is distinguishable by its membrane filopodia projections which is characteristic of its metastatic invasive phenotype (Movie S1 ^†). After 60 min incubation, both cell membrane and intracellular vesicle staining of the cytoplasm could be observed, both of which persisted at 120 min (Fig. 5b and c). […]
Fluorescence and DIC images were acquired on an Olympus IX73 epi-fluorescent microscope fitted with an Andor iXon Ultra 888 EMCCD and controlled by MetaMorph (v7.8). Fluorescence illumination was provided by a Lumencor Spectra X light engine containing a solid-state light source. […]

Row | Compound | pKa [1] | TBR ([2]; 10 to 60 min (first 60 min) post i.v. tail vein injection) | TBR ([2]; 3 h post i.v. injection) | TBR ([2]; 6 h post i.v. injection) | TBR ([2]; 24 h post i.v. injection) | TBR ([2]; 48 h post i.v. injection) | absorption or emission spectral changes between pH 7.2 and 4.5 ([3]; 5 μM in DMEM (10% FBS)/TX100 (4 mM)) | λ max flu (nm) ([3]; DMEM/10% FBS with 4 mM TX-100, 5 μM) | FEF pH 7.4/4.5 (fluorescence enhancement factor) ([3]; DMEM/10% FBS with 4 mM TX-100, 5 μM, pH 7.4 vs 4.5) | λ max abs (nm) pH 4.5 ([3]; DMEM/10% FBS with 4 mM TX-100, pH 4.5) | λ max abs (nm) pH 7.2 ([3]; DMEM/10% FBS with 4 mM TX-100, pH 7.2) | fluorescence intensity of always-on 10 relative to 2 ([3]; pH 7.4, DMEM/10% FBS, 5 μM) | fluorescence intensity of always-on 10 relative to 3 ([3]; pH 7.4, DMEM/10% FBS, 5 μM) | cell staining pattern over 120 min (MDA-MB 231 cells; 5% CO2, time-lapse over 120 min) | cell staining in the first 15 min of incubation (MDA-MB 231 cells; 5% CO2, widefield NIR-fluorescence and DIC)
1 | N=C(N)NCCC[C@@H]1NC(=O)[C@H](CCCCNC(=O)COCCOCCNC(=O)COCCOCCNC(=O)COc2ccc(-c3cc(-c4ccccc4)c4n3[B-](F)(F)[N+]3=C(c5ccc(O)c([N+](=O)[O-])c5)C=C(c5ccccc5)C3=N4)cc2)NC(=O)[C@@H](Cc2ccccc2)NC(=O)[C@H](CC(=O)O)NC(=O)CNC1=O [compound 2] | 4.9 | – | – | – | – | – | – | – | – | – | – | – | – | – | –
2 | CC(=O)N[C@@H](CSC1CC(=O)N(CCC(=O)NCCOc2ccc(-c3cc(-c4ccccc4)c4n3[B-](F)(F)[N+]3=C(c5ccc(O)c([N+](=O)[O-])c5)C=C(c5ccccc5)C3=N4)cc2)C1=O)C(=O)NCCCC[C@@H]1NC(=O)[C@H](CC(=O)O)NC(=O)CNC(=O)[C@H](CCCNC(=N)N)NC(=O)[C@@H](NC(C)=O)CSSC[C@@H](C(N)=O)NC(=O)[C@H](CC(=O)O)NC(=O)[C@@H]2CCCN2C(=O)CNC1=O (stereo partly shown) [compound 3] | 4.9 | – | – | – | – | – | – | – | – | – | – | – | – | – | –
3 | cCRGDKGPDC (disulfide) [compound 10, iRGD conjugated always-on NIR-AZA control with alkylsulfonic acid group, from fluorochrome 9 and peptide 8] | – | below 1.3 | 1.5 | 1.9 | above 2 | 2 | no absorption or emission spectral changes | 733 nm | 1.0 | 703 nm | 705 nm | 17 fold | 15 fold | first showed plasma membrane before internal organelle staining | fluorescence specific to the plasma membrane
